Paper PMC11548754, “DRN facilitates WUS transcriptional regulatory activity by chromatin remodeling to regulate shoot stem cell homeostasis in Arabidopsis” (PLOS Biology, 2024)

T1: GST-BRM (Arabidopsis, UniProt Q6EVK6 1-976)
T1 construct: The pull-down methods call it GST-BRM; also called BRAHMA; source: E. coli BL21 (DE3), purified (glutathione resin); not shown: GST, N-terminal, kept
T1 sequence (looked up): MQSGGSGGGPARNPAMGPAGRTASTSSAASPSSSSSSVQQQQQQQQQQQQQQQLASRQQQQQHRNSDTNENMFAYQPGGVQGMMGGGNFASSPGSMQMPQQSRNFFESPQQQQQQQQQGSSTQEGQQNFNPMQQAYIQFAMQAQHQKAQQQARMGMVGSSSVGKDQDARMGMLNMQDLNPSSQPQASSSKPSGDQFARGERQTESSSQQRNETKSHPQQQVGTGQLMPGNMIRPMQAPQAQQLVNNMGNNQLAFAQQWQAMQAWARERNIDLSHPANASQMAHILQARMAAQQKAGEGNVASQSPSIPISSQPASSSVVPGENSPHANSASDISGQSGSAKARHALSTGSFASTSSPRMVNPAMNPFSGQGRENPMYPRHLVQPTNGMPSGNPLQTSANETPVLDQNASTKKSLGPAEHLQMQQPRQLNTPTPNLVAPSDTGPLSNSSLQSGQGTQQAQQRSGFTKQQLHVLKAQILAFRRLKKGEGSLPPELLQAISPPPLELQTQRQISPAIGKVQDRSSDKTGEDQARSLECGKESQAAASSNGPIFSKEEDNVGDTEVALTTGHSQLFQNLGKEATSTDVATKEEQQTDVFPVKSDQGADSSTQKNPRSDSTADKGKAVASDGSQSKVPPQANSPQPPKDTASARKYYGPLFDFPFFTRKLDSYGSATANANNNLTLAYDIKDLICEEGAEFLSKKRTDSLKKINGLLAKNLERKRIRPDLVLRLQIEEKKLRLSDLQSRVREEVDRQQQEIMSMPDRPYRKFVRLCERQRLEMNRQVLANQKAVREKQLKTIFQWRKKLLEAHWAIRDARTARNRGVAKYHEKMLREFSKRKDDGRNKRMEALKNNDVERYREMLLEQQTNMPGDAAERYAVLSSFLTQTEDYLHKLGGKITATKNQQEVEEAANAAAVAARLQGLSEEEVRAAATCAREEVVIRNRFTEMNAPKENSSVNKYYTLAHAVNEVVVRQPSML

B1: GST-WUS (natural protein, Arabidopsis, UniProt Q9SB92 1-292, looked up)
chain: MEPPQHQHHHHQADQESGNNNNNKSGSGGYTCRQTSTRWTPTTEQIKILKELYYNNAIRSPTADQIQKITARLRQFGKIEGKNVFYWFQNHKARERQKKRFNGTNMTTPSSSPNSVMMAANDHYHPLLHHHHGVPMQRPANSVNVKLNQDHHLYHHNKPYPSFNNGNLNHASSGTECGVVNASNGYMSSHVYGSMEQDCSMNYNNVGGGWANMDHHYSSAPYNFFDRAKPLFGLEGHQEEEECGGDAYLEHRRTLPLFPMHGEDHINGGSGAIWKYGQSEVRPCASLELRLN
notes: also called WUSCHEL; glutathione-S-transferase (GST)-WUS; source: E. coli BL21 (DE3), purified (glutathione resin); for EMSA also size-exclusion chromatography; not shown: GST, N-terminal, kept
B2: 8His-MBP-DRN (natural protein)
chain: not shown
notes: also called DORNRÖSCHEN; source: E. coli BL21 (DE3), purified (Ni resin); for EMSA also size-exclusion chromatography; not shown: 8His, N-terminal, kept; MBP, N-terminal, kept

Key:
8His-MBP-DRN = target: B2; experiment: native gel or EMSA; EMSA with biotin-labelled CLV3 promoter probe (−1,090 to −1,064); GST-WUS alone or with 8His-MBP-DRN; super-shift; conditions: both partners purified
Chain of 8His-MBP-DRN (Q9SAD4 whole entry): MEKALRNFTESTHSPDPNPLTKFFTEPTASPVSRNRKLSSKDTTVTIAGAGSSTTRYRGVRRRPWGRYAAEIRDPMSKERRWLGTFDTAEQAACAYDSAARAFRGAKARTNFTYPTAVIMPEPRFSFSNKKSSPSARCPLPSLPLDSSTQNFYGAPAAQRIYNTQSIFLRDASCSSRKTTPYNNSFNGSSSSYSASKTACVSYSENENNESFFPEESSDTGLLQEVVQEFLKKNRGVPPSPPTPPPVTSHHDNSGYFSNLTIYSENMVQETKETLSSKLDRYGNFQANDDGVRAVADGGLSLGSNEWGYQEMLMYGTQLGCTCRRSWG

[1] = target: the molecule itself; experiment: pull-down; competition: agarose beads with 8His-MBP-WUS incubated with soluble GST-WUS for 6 h before soluble 8His-MBP-DRN was added; binding group without DRN
GST-BRM = target: T1, GST-BRM; experiment: pull-down; beads loaded with protein and soluble protein rotated at 4°C for 4 h in pull-down buffer (200 mM NaCl, 1 mM EDTA, 20 mM Tris-HCl, 0.15 mM PMSF, pH 8.0); blots with anti-GST and anti-His; conditions: both partners purified

Row | binding result (8His-MBP-DRN) | binding result (GST-BRM) | Binder | binding result [1]
1 | binds | – | B1 | binds
2 | – | binds | B2 | –
